B1: full-length zebrafish RAG2 (natural protein, UniProt O13034 1-530, looked up)
chain: MSLQPLTAVNCGSLVQPGFSLLDLEGDVYLFGQKGWPKRSCPTGIFGVRIKKGELKLRAISFSNNSSYLPPLRCPAIAHFEAQDGKPECYLIHGGRTPNNELSSSLYMLSVDSRGCNRKVTLRCEEKELVGDVPSARYGHTLSVINSRGKTACVLFGGRSYMPPTERTTQNWNSVGDCPPQVYLIDLEFGCCTAHTLPELTDGQSFHVALARQDCVYFLGGHILSSDCRPSRLIRLHVELLLGSPVLTCTILHEGLTITSAIASPIGYHEYIIFGGYQSETQKRMECTYVGLDDVGVHMESREPPQWTSEISHSRTWFGGSLGKGTALVAIPSEGNPTPPEAYHFYQVSFQKEQDGEATAQGCSQESTDFEDSAPLEDSEELYFGREPHELEYSSDVEGDTYNEEDEEDESQTGYWIKCCLSCQVDPNIWEPYYSTELTRPAMIFCSRGEGGHWVHAQCMELPESLLLQLSQDNSKYFCLDHGGLPKQEMTPPKQMLPVKRVPMKMTHRKAPVSLKMTPAKKTFLRRLFD
B2: zebrafish RAG1 (271–1031) (domain or fragment, UniProt O13033 271-1031, looked up)
chain: RCQRDHLSTKLIPTEVPADLIRAVTCQVCDHLLSDPVQSPCRHLFCRLCIIRYTHALGPNCPTCNQHLNPSHLIKPAKFFLATLSSLPLLCPSEECSDWVRLDSFREHCLNHYREKESQEEQTPSEQNLDGYLPVNKGGRPRQHLLSLTRRAQKHRLRDLKNQVKTFAEKEEGGDVKSVCLTLFLLALRAGNEHKQADELEAMMQGRGFGLHPAVCLAIRVNTFLSCSQYHKMYRTVKATSGRQIFQPLHTLRNAEKELLPGFHQFEWQPALKNVSTSWDVGIIDGLSGWTVSVDDVPADTISRRFRYDVALVSALKDLEEDIMEGLRERALDDSMCTSGFTVVVKESCDGMGDVSEKHGSGPAVPEKAVRFSFTIMSISIRLEGEDDGITIFQEQKPNSELSCRPLCLMFVDESDHETLTAILGPVVAERKAMMESRLIISVGGLLRSFRFFFRGTGYDEKMVREMEGLEASGSTYICTLCDSTRAEASQNMVLHSITRSHDENLERYEIWRKNPFSESADELRDRVKGVSAKPFMETQPTLDALHCDIGNATEFYKIFQDEIGEVYQKPNPSREERRRWRSTLDKQLRKKMKLKPVMRMNGNYARRLMTREAVEAVCELVPSEERREALLKLMDLYLQMKPVWRSTCPSRDCPDQLCQYSYNSQQFADLLSSMFKYRYDGKITNYLHKTLAHVPEIVERDGSIGAWASEGNESGNKLFRRFRKMNARQSKTFELEDILKHHWLYTSKYLQKFMEAHKNS

Tests used:
[1] = target: B2; assay: cryo-EM structure
cryo-EM structure = target: the molecule itself; assay: cryo-EM structure

Binder	binding result [1]	stoichiometry N (cryo-EM structure)
B1	binds	
B2		2

Source: publication PMC4690471 (Cell, 2015)
